This sample holds only a part of the variants without activity.
B1: TPR 5TU (parent)
chain: GGAUCUUCUCGAUCUAACAAAAAAGACAAAUCUGCCACAAAGCUUGAGAGCAUCUUCGGAUGCAGAGGCGGCAGCCUUCGGUGGCGCGAUAGCGCCAACGUUCUCAACUAUGACACGCAAAACGCGUGCUCCGUUGAAUGGAGUUUAUCAUG

Variants of: B1
Assay: polymerase ribozyme fitness, log enrichment relative to wild type (log ratio); higher = more active; in vitro selection for triplet polymerase activity
Summary of the method: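 Each subunit of a heterodimeric triplet polymerase ribozyme was mutagenized into a library by PCR, transcribed, and subjected to one round of in vitro selection, run in triplicate. Libraries were annealed with a biotinylated primer, the partner subunit and triplets, incubated frozen at −7 °C, and extended constructs were gel-excised, captured on streptavidin beads and recovered by RT-PCR. Input and output libraries were sequenced on Illumina, keeping genotypes with ≥10 input reads and ≥1 read per output. Fitness is log base 2 of genotype enrichment divided by wild-type enrichment, from inverse-variance-weighted replicate averages.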

Variant	polymerase ribozyme fitness (log ratio)
U56A C85A	-2.02
A52U U53A	-1.23
U6G C27U A49C C79G A89U C93U C132A	≤ -4.2
A16U A47G C51U C95A C114U	-3.93
A37C A40C G48C G74A G94A G126C G133A G136A A150U	≤ -4.2
G83U C87U A89C C123A C125U	-1.33
U45A U56G A73G C96G C99G A107U G140A	≤ -4.2
A28U A29U U61A G81A C93A	≤ -4.2
A21G G68A	-3.89
A21C C27A A40U G46A C57U C87G G126A	≤ -4.2
G67C C69G A91U	≤ -4.2
A12C	0.0783
U77G G86U U102C G140C	≤ -4.2
C51G U56A A106U	≤ -4.2
A41C C114U U127C	-3.96
U61C G81C C95G C123U A142G	≤ -4.2
A26U U104C G126C U146A	-2.67
A3G A12G A29G C38U G42C G86U A138C	≤ -4.2
G11C C63U C79U G86C	≤ -4.2
C18U A29U A52C C93A C125G U144A A147U	≤ -4.2
G50C C125U	-3.89

Variant	polymerase ribozyme fitness (log ratio)
C85A G124C	-1.69
U15A A21C A73G C95U U135G A138G U139C	≤ -4.2
C32U C36A U55G C93G G133U G141U	-4.01
A47G U53A C57A G84U C99U U134G G141C	≤ -4.2
C5A A16C G50A C76U G86C U144G	≤ -4.2
C96A G143C	-2.38
G25U G83A A119C	-2.78
A60G C75G G81C G94U C103A A107U U111G	≤ -4.2
A21C A24U C54G C85U A121C	-0.525
A12C A21U A64C G84U U127C A138U	≤ -4.2
C5U C27G C95U C96U G141C	≤ -4.2
A91C U139G	≤ -4.2
C63G A66G G71A G74U U135G G143C	≤ -4.2
A39G G83A G141C	-3.09
C10A G11A A39U C93A G141U	≤ -4.2
A17C A39U G58A C95A G141C	-2.82
C123G	-0.337
A19U G59C A89U G92C A121G	-2.25
A24G A29G G46U	≤ -4.2
G48U C85U G140U	≤ -4.2
A3U G80U G94U U104G C108U G126C U148A	≤ -4.2

Variant	polymerase ribozyme fitness (log ratio)
C57A U102C C103U	-2.76
U6C G48A A106G	-3.13
G68U C75A G81U G83A C95U C96U C116U	-1.31
A21C C85U	-0.369
A19G U56A G86A G141U	-1.64
C118A A121C U144C	-0.821
C27U A49C A98G C99A C125U U148C	≤ -4.2
C85G C116U U144C	-3.36
A91C	≤ -4.2
U4G	-0.0773
U6C C87U	-1.52
A12G A21C C32G G50U C125G	≤ -4.2
A40U G68A	-4.03
C57U G58C A142C	0.768
U53A G70C C114A	≤ -4.2
C14G U15C C51U G68A G83A U90G C149G	≤ -4.2
A40U G62A C95U U104C G133C	-3.3
G58C G70C G141A	≤ -4.2
G34C C76A C95U A142C	≤ -4.2
G58U G59A	0.429
U55A C93U C95U C96U	-3

Variant	polymerase ribozyme fitness (log ratio)
A30U C43G A47G U53G C72A G140A	≤ -4.2
C51U G83C A106G A122U A142U	≤ -4.2
U127G U134A	-4.18
G48A	-0.217
C75U C93G	-3
A20U C36A A41G U56A G65U A119G U127C	≤ -4.2
C10G G92U	-3.24
C72A C114A	≤ -4.2
C63U A119U U144C	-0.319
A40C U55A A89C	0.0362
A17G C85A C129A	-2.88
G50A U55A C87G C103U C116G	≤ -4.2
C51U C69A G84U A91G G133A U144A A147U	≤ -4.2
C14G A26G G58U C72U A122G	≤ -4.2
C125U U134G A142C	-3.76
C54U G84A U102G	-4.14
A29G C76U G92A C123G G143U	≤ -4.2
A21U C32G U55A G83U	≤ -4.2
C18G A20U G84U	-3.75
C14U A17U A24U C76A C85U	-3.79
